Source: publication PMC3688876

Target: Apo2L/TRAIL-R1/DR4 (human (endogenous in MCF-7)) (UniProt O00220)
Chain of UniProt O00220 (O00220 24-468): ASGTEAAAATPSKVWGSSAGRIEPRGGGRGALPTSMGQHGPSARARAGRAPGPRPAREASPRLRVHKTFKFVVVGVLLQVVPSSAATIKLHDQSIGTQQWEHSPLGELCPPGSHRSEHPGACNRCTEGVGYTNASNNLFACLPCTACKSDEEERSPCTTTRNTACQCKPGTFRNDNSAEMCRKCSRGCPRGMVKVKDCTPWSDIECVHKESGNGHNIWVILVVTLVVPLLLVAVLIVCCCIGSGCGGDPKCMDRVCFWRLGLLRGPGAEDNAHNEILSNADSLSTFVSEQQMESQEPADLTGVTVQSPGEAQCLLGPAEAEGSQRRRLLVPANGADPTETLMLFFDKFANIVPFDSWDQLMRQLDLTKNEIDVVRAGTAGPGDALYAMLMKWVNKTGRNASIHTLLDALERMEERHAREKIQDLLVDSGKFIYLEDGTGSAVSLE

Work on “Human recombinant Apo2L/TRAIL (from UniProt P50591 1-281) (ligand)” yielded a cellular apoptosis (viability by crystal violet, OD570) of MCF-7 PTHrP overexpressing cells pre-incubated with antagonistic anti-TRAIL-R1 antibody (10 µg/ml), then treated with 100 ng/ml Apo2L/TRAIL of 50%.
